This data set relates to ArgR (arginine repressor) (Escherichia coli). In words: EMSA. Conditions: EMSA essentially as Burke et al. 1994 with 1 mM L-arginine; ArgR dilution buffer 20 mM Tris-HCl pH 8.2, 20 mM MgCl2, 150 mM NaCl, 5 mM DTT, 1 ug/ml BSA, 0.01% ….

Substance cer 190 bp Arg-box fragment registered a K half of 10 nM.

The substance “loxP 198 bp fragment (P1 putative Arg-box)” gave a K half above 200 nM.

These data come from publication PMC2409434.
